From patent publication US20210206865A1 (Regeneron, published 2021)

Assays:
[1] = biological target: T1, human BCMA on the surface of cell lines (NCI-H929, MM.1S, OPM-2, RPMI-8226, Daudi, Raji, MOLP-8, U266) (human, UniProt Q02223 1-184); assay: cell-based or functional assay
T1 sequence: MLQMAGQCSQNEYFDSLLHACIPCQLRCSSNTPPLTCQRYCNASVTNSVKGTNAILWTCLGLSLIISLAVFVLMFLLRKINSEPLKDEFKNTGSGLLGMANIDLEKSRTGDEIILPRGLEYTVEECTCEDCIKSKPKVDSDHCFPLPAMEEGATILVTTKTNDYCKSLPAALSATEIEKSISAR

[2] = biological target: T2, human BCMA-MMH (extracellular domain of human BCMA with C-terminal myc-myc-hexahistidine tag) (human); assay: SPR Biacore, 25 C, mAb captured via anti-hFc
T2 construct: Monomeric antigen; also called hBCMA.mmh; hBCMA.mmH
T2 chain: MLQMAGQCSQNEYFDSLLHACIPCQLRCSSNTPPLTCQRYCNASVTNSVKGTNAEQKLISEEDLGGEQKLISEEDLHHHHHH
Description: (§1) The CM5 Biacore sensor surface was derivatized by amine coupling with a monoclonal mouse anti-human Fc antibody (GE, #BR-1008-39) to capture purified anti-BCMA mAbs and anti-BCMA×anti-CD3 bispecific mAbs. All Biacore binding studies were performed in a buffer composed of 0.01M HEPES pH 7.4, 0.15M NaCl, 3 mM EDTA, 0.05% v/v Surfactant P20 (HBS-ET running buffer). […] Antigen samples were then injected over the anti-BCMA and anti-BCMA×anti-CD3 bispecific mAbs captured surfaces at a flow rate of 30 μL/minute. Antibody-reagent association was monitored for 5 minutes while dissociation in HBS-ET running buffer was monitored for 10 minutes. All of the binding kinetics experiments were performed at 25° C. Kinetic association (kₐ) and dissociation (kd) rate constants were determined by fitting the real-time sensorgrams to a 1:1 binding model using Scrubber 2.0c curve fitting software. Binding dissociation equilibrium constants (KD) and dissociative half-lives (t1/2) were calculated from the kinetic rate constants as: […]

[3] = biological target: T3, human BCMA-MFC (extracellular domain of human BCMA with C-terminal mFc tag) (human); assay: SPR Biacore, 25 C, mAb captured via anti-hFc
T3 construct: also called hBCMA.mFc
T3 chain: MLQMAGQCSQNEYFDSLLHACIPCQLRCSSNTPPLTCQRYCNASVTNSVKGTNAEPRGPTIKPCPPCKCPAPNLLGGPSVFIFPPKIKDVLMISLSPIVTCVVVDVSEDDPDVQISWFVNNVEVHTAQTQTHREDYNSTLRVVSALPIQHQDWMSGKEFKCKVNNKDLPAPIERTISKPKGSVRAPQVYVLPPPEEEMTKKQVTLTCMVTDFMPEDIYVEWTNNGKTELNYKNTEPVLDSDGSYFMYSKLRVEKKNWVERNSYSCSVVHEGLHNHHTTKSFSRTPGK
Description: as §1

[4] = biological target: T4, monkey BCMA-MFC (monkey BCMA with C-terminal mFc tag) (monkey); assay: SPR Biacore, 25 C, mAb captured via anti-hFc
T4 construct: also called mfBCMA.mFc
T4 sequence (chain, as listed by the source limits assumed): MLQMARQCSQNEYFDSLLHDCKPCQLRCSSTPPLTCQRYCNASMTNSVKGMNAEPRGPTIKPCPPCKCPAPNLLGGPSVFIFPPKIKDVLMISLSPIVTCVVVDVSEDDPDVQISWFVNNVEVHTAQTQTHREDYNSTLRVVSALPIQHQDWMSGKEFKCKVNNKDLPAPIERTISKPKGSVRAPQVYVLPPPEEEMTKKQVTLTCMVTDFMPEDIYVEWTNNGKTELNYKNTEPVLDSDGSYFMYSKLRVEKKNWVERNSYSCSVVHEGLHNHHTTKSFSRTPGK
Description: as §1

[5] = biological target: T1, human BCMA on the surface of cell lines …; assay: cell-based or functional assay; remark: listed apart in the source
[6] = biological target: T1, human BCMA on the surface of cell lines …; assay: cell-based or functional assay; remark: listed apart in the source
[7] = biological target: T5, human CD3 on cells (Jurkat cells, primary human CD8+ T cells) (human, UniProt P07766 23-207; P04234 22-171; P20963 22-164; P09693 23-182); assay: flow cytometry, primary human CD8+ T cells, median EC50, n=1
T5 construct: CD3 complex as part of the TCR on T cells; also called hCD3; Jurkat-hCD3
T5 sequence (P07766 23-207 limits assumed, chain 1 of 4): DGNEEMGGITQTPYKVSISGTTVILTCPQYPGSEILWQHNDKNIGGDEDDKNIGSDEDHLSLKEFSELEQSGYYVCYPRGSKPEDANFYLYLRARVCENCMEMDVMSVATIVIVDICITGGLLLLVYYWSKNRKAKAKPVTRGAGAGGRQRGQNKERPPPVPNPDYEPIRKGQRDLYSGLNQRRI
T5 sequence (P04234 22-171 limits assumed, chain 2 of 4): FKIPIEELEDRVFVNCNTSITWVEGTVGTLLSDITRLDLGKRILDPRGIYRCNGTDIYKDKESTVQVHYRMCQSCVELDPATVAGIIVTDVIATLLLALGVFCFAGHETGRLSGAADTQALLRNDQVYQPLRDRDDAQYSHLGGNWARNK
T5 sequence (P20963 22-164 limits assumed, chain 3 of 4): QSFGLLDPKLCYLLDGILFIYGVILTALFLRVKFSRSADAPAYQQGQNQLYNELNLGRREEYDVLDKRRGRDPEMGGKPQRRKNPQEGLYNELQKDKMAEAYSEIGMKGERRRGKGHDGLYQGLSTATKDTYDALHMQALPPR
T5 sequence (P09693 23-182 limits assumed, chain 4 of 4): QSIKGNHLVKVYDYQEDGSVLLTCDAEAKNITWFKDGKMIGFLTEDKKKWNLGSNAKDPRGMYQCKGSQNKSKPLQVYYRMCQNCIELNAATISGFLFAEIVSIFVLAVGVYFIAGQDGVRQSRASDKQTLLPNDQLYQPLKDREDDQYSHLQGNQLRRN
Description: Flow cytometric analysis was utilized to determine binding of BCMA×CD3 bispecific antibodies to human and cynomolgus CD3 (Jurkat cells, mfCD3 engineered Jurkat cells, primary human CD8+ and cynomolgus CD8+ T cells). Briefly, 1e05 cells/well were incubated in the presence of FACS wash with block (PBS+1% filtered FBS+5% mouse serum) with a serial dilution of BCMA×CD3 and control antibodies for 30 minutes on ice. After incubation, the cells were washed twice with cold FACS wash (PBS+1% filtered FBS) and bound antibody was detected by incubating with Alexa647-conjugated anti-human secondary antibody on ice for an additional 30 minutes. Wells containing no antibody or secondary only were used as a control. For the detection of monkey and human T cells, a cocktail of human and cynomolgus cross-reactive antibodies to CD4, CD8 and CD16 was added to the anti-human secondary. After incubation, cells were washed, re-suspended in 200 μL cold PBS containing 1% filtered FBS and analyzed by flow cytometry on a BD FACS Canto II. Cells were gated by FSC-H by FSC-A to select singlet events, followed by side and forward scatters to select for live events. For monkey T cells, additional gating on CD8+/CD16-cells was performed.
EC50 values for FACS binding were calculated using 4-parameter non-linear regression analysis in Prism software.

[8] = biological target: T1, human BCMA on the surface of cell lines …; assay: cell-based or functional assay; remark: listed apart in the source

B1: bsAb25441D bispecific antibody (REGN5458), anti-BCMA x anti-CD3 (bispecific antibody, human IgG4 S228P, kappa)
heavy 1: EVQLVESGGGLVQPGGSLRLSCAASGFTFSNFWMTWVRQAPGKGLEWVANMNQDGSEKYYVDSVKGRFTISRDNAKSSLYLQMNSLRAEDTAVYYCARDREYCISTSCYDDFDYWGQGTLVTVSSASTKGPSVFPLAPCSRSTSESTAALGCLVKDYFPEPVTVSWNSGALTSGVHTFPAVLQSSGLYSLSSVVTVPSSSLGTKTYTCNVDHKPSNTKVDKRVESKYGPPCPPCPAPPVAGPSVFLFPPKPKDTLMISRTPEVTCVVVDVSQEDPEVQFNWYVDGVEVHNAKTKPREEQFNSTYRVVSVLTVLHQDWLNGKEYKCKVSNKGLPSSIEKTISKAKGQPREPQVYTLPPSQEEMTKNQVSLTCLVKGFYPSDIAVEWESNGQPENNYKTTPPVLDSDGSFFLYSRLTVDKSRWQEGNVFSCSVMHEALHNHYTQKSLSLSLGK
heavy 2: EVQLVESGGGLVQPGRSLRLSCAASGFTFDDYSMHWVRQAPGKGLEWVSGISWNSGSKGYADSVKGRFTISRDNAKNSLYLQMNSLRAEDTALYYCAKYGSGYGKFYHYGLDVWGQGTTVTVSSASTKGPSVFPLAPCSRSTSESTAALGCLVKDYFPEPVTVSWNSGALTSGVHTFPAVLQSSGLYSLSSVVTVPSSSLGTKTYTCNVDHKPSNTKVDKRVESKYGPPCPPCPAPPVAGPSVFLFPPKPKDTLMISRTPEVTCVVVDVSQEDPEVQFNWYVDGVEVHNAKTKPREEQFNSTYRVVSVLTVLHQDWLNGKEYKCKVSNKGLPSSIEKTISKAKGQPREPQVYTLPPSQEEMTKNQVSLTCLVKGFYPSDIAVEWESNGQPENNYKTTPPVLDSDGSFFLYSRLTVDKSRWQEGNVFSCSVMHEALHNRFTQKSLSLSPGK
light: not shown
notes: Anti-BCMA arm from mAb21581, anti-CD3 arm and common light chain from mAb7221G; also called bsAb25441D9; mAb25441D
- Median EC50, % Survival of H929 target cells, cynomolgus effector cells [1]: 23.4 pM
- Median EC50, % T activation with H929 target cells, cynomolgus effector cells [1]: 68.3 pM
- 90 nM hBCMA.mmh Bind (RU) [2]: 19.9 RU
- Kd [2]: 1.06 nM
- t1/2 [2]: 13.2 min
- 30 nM hBCMA.mFc Bind (RU) [3]: 107 RU
- Kd [3]: ≤ 0.0223 nM
- t1/2 [3]: ≤ 1160 min
- 30 nM mfBCMA.mFc Bind (RU) [4]: 108 RU
- Kd [4]: 0.167 nM
- t1/2 [4]: 131 min
- EC50, Jurkat/NFATLuc reporter activation with Daudi cells [5]: 2.1 nM
- EC50, Jurkat/NFATLuc reporter activation with MM1-S cells [5]: 1.2 nM
- EC50, Jurkat/NFATLuc reporter activation with NCI-H929 cells [5]: 0.68 nM
- EC50, Jurkat/NFATLuc reporter activation with OPM-2 cells [5]: 0.66 nM
- Median EC50, % Survival of H929 target cells, human effector cells [6]: 103 pM
- Median EC50, % Survival of MM1S target cells, human effector cells [6]: 64.6 pM
- Median EC50, % Survival of U266 target cells, human effector cells [6]: 328 pM
- Median EC50, % T activation with H929 target cells, human effector cells [6]: 211 pM
- Median EC50, % T activation with MM1S target cells, human effector cells [6]: 70.6 pM
- Median EC50, % T activation with U266 target cells, human effector cells [6]: 107 pM
- EC50 [7]: 32 nM
- EC50, Jurkat/NFATLuc reporter activation with MOLP-8 cells [8]: 1.4 nM
- EC50, Jurkat/NFATLuc reporter activation with RPMI-8226 cells [8]: 0.61 nM
- EC50, Jurkat/NFATLuc reporter activation with Raji cells [8]: 1.6 nM

B2: bsAb25442D bispecific antibody (REGN5459), anti-BCMA x anti-CD3 (bispecific antibody, human IgG4 S228P, kappa)
heavy 1: EVQLVESGGGLVQPGGSLRLSCAASGFTFSNFWMTWVRQAPGKGLEWVANMNQDGSEKYYVDSVKGRFTISRDNAKSSLYLQMNSLRAEDTAVYYCARDREYCISTSCYDDFDYWGQGTLVTVSSASTKGPSVFPLAPCSRSTSESTAALGCLVKDYFPEPVTVSWNSGALTSGVHTFPAVLQSSGLYSLSSVVTVPSSSLGTKTYTCNVDHKPSNTKVDKRVESKYGPPCPPCPAPPVAGPSVFLFPPKPKDTLMISRTPEVTCVVVDVSQEDPEVQFNWYVDGVEVHNAKTKPREEQFNSTYRVVSVLTVLHQDWLNGKEYKCKVSNKGLPSSIEKTISKAKGQPREPQVYTLPPSQEEMTKNQVSLTCLVKGFYPSDIAVEWESNGQPENNYKTTPPVLDSDGSFFLYSRLTVDKSRWQEGNVFSCSVMHEALHNHYTQKSLSLSLGK
heavy 2: EVQLVESGGGLVQPGRSLRLSCAASGFTFDDYSMHWVRQAPGKGLEWVSGISWNSGSIGYADSVKGRFTISRDNAKNSLYLQMNSLRAEDTALYYCAKYGSGYGKFYYYGMDVWGQGTTVTVSSASTKGPSVFPLAPCSRSTSESTAALGCLVKDYFPEPVTVSWNSGALTSGVHTFPAVLQSSGLYSLSSVVTVPSSSLGTKTYTCNVDHKPSNTKVDKRVESKYGPPCPPCPAPPVAGPSVFLFPPKPKDTLMISRTPEVTCVVVDVSQEDPEVQFNWYVDGVEVHNAKTKPREEQFNSTYRVVSVLTVLHQDWLNGKEYKCKVSNKGLPSSIEKTISKAKGQPREPQVYTLPPSQEEMTKNQVSLTCLVKGFYPSDIAVEWESNGQPENNYKTTPPVLDSDGSFFLYSRLTVDKSRWQEGNVFSCSVMHEALHNRFTQKSLSLSPGK
light: not shown
notes: Anti-BCMA arm from mAb21581, anti-CD3 arm and common light chain from mAb7221G20; also called mAb25442D; mAb25442D-A647
- Median EC50, % Survival of H929 target cells, cynomolgus effector cells [1]: 69.2 pM
- Median EC50, % T activation with H929 target cells, cynomolgus effector cells [1]: 158 pM
- 90 nM hBCMA.mmh Bind (RU) [2]: 17 RU
- Kd [2]: 1.38 nM
- koff [2]: 0.00101 s⁻¹
- kon [2]: 730000 M⁻¹ s⁻¹
- t1/2 [2]: 11.5 min
- 30 nM hBCMA.mFc Bind (RU) [3]: 96.8 RU
- Kd [3]: ≤ 0.0223 nM
- koff [3]: ≤ 1e-05 s⁻¹
- kon [3]: 449000 M⁻¹ s⁻¹
- t1/2 [3]: ≤ 1160 min
- 30 nM mfBCMA.mFc Bind (RU) [4]: 97 RU
- Kd [4]: 0.148 nM
- koff [4]: 7.15e-05 s⁻¹
- kon [4]: 482000 M⁻¹ s⁻¹
- t1/2 [4]: 162 min
- EC50, Jurkat/NFATLuc reporter activation with Daudi cells [5]: 7.9 nM
- EC50, Jurkat/NFATLuc reporter activation with MM1-S cells [5]: 4.4 nM
- EC50, Jurkat/NFATLuc reporter activation with NCI-H929 cells [5]: 2.7 nM
- EC50, Jurkat/NFATLuc reporter activation with OPM-2 cells [5]: 2.6 nM
- Median EC50, % Survival of H929 target cells, human effector cells [6]: 301 pM
- Median EC50, % Survival of MM1S target cells, human effector cells [6]: 288 pM
- Median EC50, % Survival of U266 target cells, human effector cells [6]: 1660 pM
- Median EC50, % T activation with H929 target cells, human effector cells [6]: 300 pM
- Median EC50, % T activation with MM1S target cells, human effector cells [6]: 458 pM
- Median EC50, % T activation with U266 target cells, human effector cells [6]: 469 pM
- EC50 [7]: 4710 nM
- EC50, Jurkat/NFATLuc reporter activation with MOLP-8 cells [8]: 11 nM
- EC50, Jurkat/NFATLuc reporter activation with RPMI-8226 cells [8]: 2.6 nM
- EC50, Jurkat/NFATLuc reporter activation with Raji cells [8]: 7.4 nM
